Experimental data taken from US20250011363A1, “OPTIMIZED SHORTENED PEPTIDE THAT BINDS TO ACETYLCHOLINE RECEPTOR, AND USE THEREOF” (SKINMED CO., LTD., priority 2021, published 2025).

target: acetylcholine receptor (Homo sapiens, UniProt P02708); assay: SPR binding affinity (RU) of optimized 5mer/6mer/7mer peptides, Examples 6-7; conditions: 6mer-1 Top sequence; SPR; peptides tested at 10 μM
Description: Based on the frequencies of occurrence of the top 7 amino acids from Table 7 in Example 5, 600 peptides comprising these amino acids (top combinations) and those comprising the 13 less frequently occurring amino acids (bottom combinations) were synthesized for each series of 5mer, 6mer-1, and 6mer-2. The binding affinity of each sequence for the acetylcholine receptor was measured using Surface Plasmon Resonance (SPR) analysis method. The peptides were tested at a concentration of 10 μM. Additionally, the average binding affinities of the top and bottom combinations in each series are depicted in FIGS. 5-7.
Representative peptides identified in Example 6, two in each library, including 5mers (73, 311) and 6mers-1 (43, 210) and 6mers-2 (136, 233), were compared with the pre-optimized 6mer, 5mer-ND, and Synake.

Chain of acetylcholine receptor (P02708 21-457): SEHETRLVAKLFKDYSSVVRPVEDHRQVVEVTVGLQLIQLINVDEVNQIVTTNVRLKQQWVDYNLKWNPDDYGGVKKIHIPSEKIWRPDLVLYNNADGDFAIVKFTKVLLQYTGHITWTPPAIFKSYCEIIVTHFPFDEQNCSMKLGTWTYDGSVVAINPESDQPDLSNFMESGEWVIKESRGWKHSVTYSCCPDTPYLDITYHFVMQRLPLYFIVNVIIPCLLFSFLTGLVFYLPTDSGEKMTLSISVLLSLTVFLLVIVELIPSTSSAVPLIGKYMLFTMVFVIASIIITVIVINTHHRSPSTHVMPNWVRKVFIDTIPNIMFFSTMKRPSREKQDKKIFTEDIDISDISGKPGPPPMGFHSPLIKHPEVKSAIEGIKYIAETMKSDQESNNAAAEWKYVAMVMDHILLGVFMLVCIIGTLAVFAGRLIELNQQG

Substance	Binding affinity [Ru]
6mer-1-303 (RKQYCK)	123
6mer-1-283 (KKWVQK)	133
6mer-1-207 (KKSQQR)	151
6mer-1-309 (KKGICK)	153

same assay, conditions: 6mer-2 Top sequence; SPR; peptides tested at 10 μM

Substance	Binding affinity [Ru]
6mer-2-75 (KLYTRK)	133
6mer-2-101 (RLICRK)	154
6mer-2-109 (RRVYRK)	144
6mer-2-31 (KSYQRK)	121
6mer-2-169 (KRQSRR)	123
6mer-2-64 (KSVSKK)	136
6mer-2-56 (RSQLRR)	149
6mer-2-87 (RRLTKR)	142
6mer-2-94 (RLYQRK)	126

same assay, conditions: SPR, Resonance Units; 5mer Bottom sequence (bottom combinations); peptides tested at 10 μM

Substance	Binding affinity [Ru]
5mer-647 (KHTVK)	29
5mer-1069 (RPSFK)	31
5mer-919 (KNNIK)	32
5mer-1015 (RCWMK)	30
5mer-1019 (RFKFK)	28
5mer-753 (RKTPK)	30
5mer-810 (KFHKK)	11
5mer-1107 (RPWHK)	21
5mer-922 (RMWKR)	14
5mer-690 (RAEIK)	12
5mer-642 (RAWDR)	22
5mer-932 (RTAWK)	27
5mer-692 (RDHWK)	15
5mer-1011 (KTDMK)	25
5mer-1012 (RHKVR)	22
5mer-1005 (RTHGR)	30
5mer-648 (KNKKR)	15
5mer-1061 (KDSFR)	24

same assay, conditions: SPR, Resonance Units; peptides tested at 10 μM; 6mer-1 Bottom sequence

Substance	Binding affinity [Ru]
6mer-1-1023 (KRIMHK)	39
6mer-1-1116 (KRHPFR)	35
6mer-1-1039 (KRADIK)	40
6mer-1-1192 (RKDDDR)	36
6mer-1-1138 (KRDCFR)	21
6mer-1-1104 (KRNSAR)	28
6mer-1-1044 (KKHHIR)	24
6mer-1-1099 (RRKTDR)	24
6mer-1-1171 (RKIAFK)	40
6mer-1-1140 (KRATMK)	43
6mer-1-1113 (RRCTMK)	28

same assay, conditions: SPR, Resonance Units; peptides tested at 10 μM; 6mer-1 Bottom sequence (Table 11)

Substance	Binding affinity [Ru]
6mer-1-721 (RKAMEK)	22
6mer-1-758 (KKYHHR)	33
6mer-1-694 (RKYTKR)	27
6mer-1-617 (KRHNVR)	31
6mer-1-686 (KKYEVR)	25
6mer-1-697 (RRPTNR)	13
6mer-1-696 (KKHCNR)	18
6mer-1-747 (KKTMDR)	24
6mer-1-724 (KRPKNK)	19
6mer-1-615 (KKTSER)	18
6mer-1-722 (RRNKVR)	12
6mer-1-735 (RKDKER)	19

same assay, conditions: SPR, Resonance Units; peptides tested at 10 μM; 6mer-2 Bottom sequence

Substance	Binding affinity [Ru]
6mer-2-851 (KFWWRR)	19
6mer-2-759 (RFDEKK)	18
6mer-2-696 (KFTKKK)	20
6mer-2-720 (RATNRK)	29
6mer-2-642 (KTENKK)	16
6mer-2-675 (RMKWRK)	14
6mer-2-932 (RIPWRR)	35
6mer-2-902 (KPDVRK)	26
6mer-2-685 (KFHNRK)	15
6mer-2-959 (RTNARK)	35
6mer-2-958 (KFKARK)	28
6mer-2-741 (KNEKKR)	30
6mer-2-640 (KFKKKR)	21
6mer-2-616 (REPHRK)	26

same assay, conditions: SPR, Resonance Units; peptides tested at 10 μM; 6mer-2 Top sequence

Substance	Binding affinity [Ru]
6mer-2-465 (KGVSKR)	122
6mer-2-444 (RQRLKK)	141
6mer-2-425 (KLQTKK)	145
6mer-2-511 (RVFCRR)	126
6mer-2-409 (KRRRKR)	139
6mer-2-542 (RQIYRR)	148
6mer-2-486 (KQQSKK)	121
6mer-2-567 (KLYYRK)	146
6mer-2-539 (KWYTKK)	127

same assay, conditions: SPR, Resonance Units; peptides tested at 10 μM; 6mer-2 Top sequence (Table 12)

Substance	Binding affinity [Ru]
6mer-2-256 (KSQQKR)	142
6mer-2-363 (KSIYRK)	147
6mer-2-274 (KLRTKR)	148
6mer-2-362 (RGRQKR)	154
6mer-2-313 (RWRTKR)	154
6mer-2-333 (KRFRRK)	139
6mer-2-330 (KQLRKK)	139

same assay, conditions: SPR, peptides at 10 μM; 6mer-2 Bottom sequence

Substance	Binding affinity [Ru]
6mer-2-1034 (KHSWRR)	38
6mer-2-1119 (KCTVRK)	39
6mer-2-1065 (RIANRK)	27
6mer-2-1150 (KTDVKK)	42
6mer-2-995 (KFWEKK)	38
6mer-2-1107 (RAHERK)	29
6mer-2-1181 (KACWKR)	32
6mer-2-1179 (KACVKK)	34
6mer-2-1059 (RFADRR)	35

same assay, conditions: SPR, peptides tested at 10 μM; 5mer Top sequence

Substance	Binding affinity [Ru]
5mer-438 (RVRSR)	76
5mer-421 (RVVYK)	68
5mer-186 (KRLQR)	64
5mer-410 (RRFLR)	76
5mer-110 (KRRLK)	76
5mer-194 (KWQSK)	84
5mer-465 (RWFRK)	57
5mer-359 (KRFQK)	79
5mer-2 (KRISR)	80
5mer-509 (RVQRK)	61
5mer-510 (RQLSK)	71
5mer-119 (KQIRK)	60
5mer-365 (KRRYK)	52
5mer-331 (RGIQR)	79

same assay, conditions: SPR, peptides tested at 10 μM; 5mer Top sequence (top combinations)

Substance	Binding affinity [Ru]
5mer-541 (KVFLK)	80
5mer-254 (KLLRK)	87
5mer-567 (RRYCK)	63
5mer-247 (RWYCR)	80
5mer-516 (KWQTR)	83
5mer-296 (KWISK)	55
5mer-231 (KGLLK)	60

same assay, conditions: SPR, peptides tested at 10 μM; 6mer-1 Bottom sequence (Table 11)

Substance	Binding affinity [Ru]
6mer-1-904 (KKDTKR)	31
6mer-1-954 (KKAKGR)	41
6mer-1-889 (KRIMEK)	25
6mer-1-880 (KRPMDK)	21
6mer-1-811 (KRHCHK)	16
6mer-1-938 (KKIAWK)	28
6mer-1-858 (KKKHKR)	27
6mer-1-810 (RKCNAR)	12

same assay, conditions: SPR, peptides tested at 10 μM; 6mer-1 Top sequence

Substance	Binding affinity [Ru]
6mer-1-535 (RRVILK)	139
6mer-1-508 (RRQFSK)	135
6mer-1-520 (KRQIYK)	127
6mer-1-459 (RRWVYK)	131
6mer-1-471 (KKWRCK)	123
6mer-1-515 (RRGLSR)	139

same assay, conditions: SPR, peptides tested at 10 μM; 6mer-1 Top sequence (top combinations)

Substance	Binding affinity [Ru]
6mer-1-3 (RKRRSR)	154
6mer-1-133 (RKRFLR)	154
6mer-1-41 (RKGITK)	122
6mer-1-154 (KKLYSR)	153
6mer-1-150 (RKRQCR)	142
6mer-1-16 (KKQYCR)	136
6mer-1-33 (KKSYCR)	154
6mer-1-188 (RKSLQK)	122
6mer-1-131 (KRGIQR)	142

same assay, conditions: SPR; XRRGVRR-7mer and RRGVRRX-7mer

Substance	Binding affinity, values relative to the RRGVRR sequence
3675 (RRGVRRQ) [compound 3675]	105

same assay, conditions: SPR; peptides tested at 10 μM; 5mer Bottom sequence

Substance	Binding affinity [Ru]
5mer-890 (KKHFK)	33
5mer-878 (KHTER)	24
5mer-860 (RCHAK)	31
5mer-1152 (KENFK)	18
5mer-887 (KTPVR)	30
5mer-1170 (KHSEK)	28
5mer-897 (KFCER)	30
5mer-823 (KECFK)	26
